Experimental data from the supplement of paper PMC10567573.

B1: RSAD1 (parent)
chain: YCNFNKYIPRRLEEAAMQKCLVTE
B2: GLTSCR2 (parent)
chain: LARRRRRRQARREAEADKPRRLGR

Variants of: B1
Assay: protein stability index of a GFP-peptide fusion (GPS, HEK-293T) (PSI 1-6); higher = more stable
Conditions: c terminus: a fixed tail appended
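Further: lentivirally expressed fusions sorted by FACS into six bins by GFP to DsRed ratio, PSI derived from sequencing read proportions per bin multiplied by bin number.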

Protein stability index of substitutions, site by site:
F4: P 2.82, N 2.49, E 2.07, S 2.8, Y 2.23, C 1.94, G 2.66, R 1.95, I 1.67, T 2.61, L 2.08, H 1.21, W 2.56, K 2.26, M 2.35, V 3.15, D 2.58, Q 2.76
K6: S 2.19, T 2.79, D 2.9, I 2.52, V 3.4, M 3.03, Q 1.5, C 1.43, L 2.58, R 1.7, F 3.19, N 2.56, P 2.21, A 2.11, E 3.37, W 2.56, Y 3.05, H 3.4, G 3.22
Y7: Q 1.8, T 2.22, P 2.42, G 2.18, F 3.98, R 2.31, V 3.01, K 2.42, A 2.11, I 2.02, M 1.79, S 2.51, E 3.1, N 2.58, L 2, H 2.68, D 2.49, C 2.52
N3: V 1.85, Q 2.04, W 1.96, C 1.95, S 1.84, T 2.6, A 2.13, G 2.94, I 1.61, F 2.4, E 1.99, M 2.24, H 2.74, K 1.84, R 1.66, Y 1.63, P 2.03, L 1.66
Y1: D 2.47, K 2.63, S 2.46, E 2.49, M 2.32, W 2.65, R 1.96, N 2.58, L 2.72, G 1.89, H 2.94, F 1.68, A 2.31, T 2.38, I 2.76, V 1.99, C 1.97, Q 3.07, P 2.27
N5: R 2.48, D 1.49, P 2.07, M 2.72, A 1.68, S 3.3, I 2.17, H 2.31, G 2.91, Y 2.75, T 2.59, Q 2.18, L 3.04, W 2.15, V 1.19, K 2.28, F 1.25
C2: S 1.84, Q 1.87, R 2.42, E 2.98, M 2.31, G 2.48, I 1.76, D 2.88, P 1.44, W 1.82, T 2.2, A 2.33, N 2.84, F 2.35, K 2.31, Y 1.89, H 3.01
R10: Q 1.96, M 2.53, N 2.33, G 1.24, D 1.92, K 1.64, I 2.39, C 3.8, A 1.91, E 1.26, H 1.94, P 1.74, S 1.48, F 2.22, L 2.63
I8: A 1.69, H 2.58, D 2.3, M 1.85, K 1.71, Q 1.61, S 2.37, T 1.96, L 2.05, R 1.67, F 2.48, V 1.09, P 1.83, Y 1.5, N 1.68, W 2.26, G 1.22, E 2.03
P9: M 1.4, S 2.52, K 1.73, R 1.37, E 3.05, V 2.71, Y 2.48, G 2.12, Q 1.54, C 3.11, N 1.82, D 2.38, L 2.28, H 2.14, I 2.85, A 2.11, T 1.79, W 2.6

Variants of: B2
Assay: as above
Conditions: c terminus: a fixed tail appended

Protein stability index: each site, then its substitutions
D17: P 4.33, C 4.07, T 4.66, V 3.99, Y 4.88, R 4.82, W 4.33, K 4.99, F 4.73, G 4.24, A 4.3, L 4.52, H 4.81, M 4.49, E 5.31, N 4.32, Q 4.53, I 3.98
L22: Y 4.35, F 3.87, R 5.04, Q 4.87, N 4.62, P 4.15, S 5.13, E 5.15, M 4.74, H 4.23, D 5.31, I 4.7, G 4.3, V 5.4, K 4.71, A 4.74, T 4.74, W 4.62, C 4.53
A16: R 3.96, S 3.77, W 3.73, T 4.76, Y 4.61, V 4.69, Q 4.89
R24: M 4.28, K 4.67, L 4.58, V 4.42, F 4.3, P 4.67, N 4.28, A 4.72, E 4.12, H 4.8, G 4.79, D 5.02, C 4.44, Y 4.8, Q 4.62, I 4.47, T 4.6, S 4.85, W 3.84
R21: Y 4.94, L 4.36, W 3.64, D 4.65, P 3.66, G 4.39, M 4.52, I 3.94, K 4.44, H 3.99, C 4.84, S 5.15, E 4.8, Q 5.13, T 4.83, A 5.06, F 4.58, N 4.73, V 4.67
K18: A 4.89, N 4.96, L 5.11, S 4.74, Y 4.85, T 4.29, P 5.41, H 4.98, W 3.88, V 5.01, Q 4.97, G 4.91, F 5.1, D 4.78, R 5.02, I 4.34, E 5.03, M 5.14, C 5.07
R20: S 5.26, V 4.65, C 4.45, E 4.52, M 4.38, H 5.18, N 4.75, D 4.11, P 5.45, Q 4.6, A 4.25, I 4.36, K 4.64, Y 4.61, W 4.41, F 4.04, T 4.82, L 4.64, G 4.91
G23: I 4.53, S 5.18, F 4.44, Y 4.44, E 4.68, C 4.57, A 4.34, W 4.46, K 3.76, H 4.79, Q 4.51, N 4.64, L 4.18, V 4.45, D 4.9, P 4.77, R 4.57, T 5.05, M 4.17
P19: E 4.64, C 4.29, W 3.92, T 4.39, D 4.91, V 4.08, S 4.16, M 4.08, Y 4.26, H 4.09, N 4.58, A 3.92, L 3.91, I 3.81, K 4.61, R 4.54, G 4.57, Q 4.19
